Experimental data: article PMC8918029 (Journal of medicinal chemistry, 2021)
Square brackets hold non-standard residues; d marks the D form. * marks the point of attachment. Boc = CC(C)(C)OC(=O)*; Aib = CC(C)(N)C(=O)O

Target: γ-secretase complex (presenilin-1, nicastrin, Aph-1, Pen-2) (UniProt Q92542 34-709; Q96BI3 1-265; Q9NZ42 1-101)
Assay: enzyme inhibition kinetics

## Boc-VG[Aib]VVI[Aib]FV[Aib]GGGVFFLV-NH2 (also: hydroxyethylurea isostere (ψ) between the two Phe (15-16)) [HPI-TSA conjugate 28]
  Ki: 1.19 ± 0.1 nM
